In PMC6077149 (Molecular Therapy. Methods & Clinical Development, 2018):

B1: GluA4-Fc (amino-terminal domain of GluA4 fused to huIgG1-Fc and an Avi tag) (Fc fusion)
chain: AFPSSVQIGGLFIRNTDQEYTAFRLAIFLHNTSPNASEAPFNLVPHVDNIETANSFAVTNAFCSQYSRGVFAIFGLYDKRSVHTLTSFCSALHISLITPSFPTEGESQFVLQLRPSLRGALLSLLDHYEWNCFVFLYDTDRGYSILQAIMEKAGQNGWHVSAICVENFNDVSYRQLLEELDRRQEKKFVIDCEIERLQNILEQIVSVGKHVKGYHYIIANLGFKDISLERFIHGGANVTGFQLVDFNTPMVTKLMDRWKKLDQREYPGSETPPKYTSALTYDGVLVMAETFRSLRRQKIDISRRGNAGDCLANPAAPWGQGIDMERTLKQVRIQGLTGNVQFDHYGRRVNYTMDVFELKSTGPRKVGYWNDMDKLVLIQD
modifications: biotin on the Avi tag in the biotinylated form (roughly 76% biotinylated)

Legend:
[1] = target: Fc (huIgG1-Fc fused to the Avi tag) (human); experiment: SEC
SEC = target: the molecule itself; experiment: SEC
[2] = target: DARPin 2B7 fused to the measles virus H protein (DARPin-H); experiment: flow cytometry on cells
[3] = target: DARPin SB4 fused to the measles virus H protein (DARPin-H); experiment: flow cytometry on cells
[4] = target: four DARPins (SD8, SK14, 2K19, 2B7) and the scFv Fab7; experiment: flow cytometry on cells

| Molecule | stoichiometry N [1] | stoichiometry N (SEC) | Kd [2] [nM] | Kd [3] [nM] | Kd [4] [nM] |
| --- | --- | --- | --- | --- | --- |
| Fc (huIgG1-Fc fused to the Avi tag) (domain or fragment) | 2 |  |  |  |  |
| B1 |  | 4 | 8.4 | 19 | 1.6 to 3.7 |
